According to patent US20260209350A1 (Alector, published 2026):
Read-outs that look alike come from different tables or passages of the source.

Tests used:
[1] = target: T1, human TREM2 Fc fusion protein (human, UniProt Q9NZC2 19-174); assay: ForteBio or MSD-SET, avid
T1 construct: also called hTREM2-Fc; not shown: Fc part not specified
T1 sequence: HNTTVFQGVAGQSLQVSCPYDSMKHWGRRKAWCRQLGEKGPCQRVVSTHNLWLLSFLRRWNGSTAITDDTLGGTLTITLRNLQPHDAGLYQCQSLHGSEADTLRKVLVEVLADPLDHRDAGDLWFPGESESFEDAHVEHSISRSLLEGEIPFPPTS

[2] = target: T2, mouse TREM2 Fc fusion protein (mouse, UniProt Q99NH8 19-171); assay: ForteBio or MSD-SET, avid
T2 construct: also called mTREM2-Fc; not shown: Fc part not specified
T2 sequence (looked up): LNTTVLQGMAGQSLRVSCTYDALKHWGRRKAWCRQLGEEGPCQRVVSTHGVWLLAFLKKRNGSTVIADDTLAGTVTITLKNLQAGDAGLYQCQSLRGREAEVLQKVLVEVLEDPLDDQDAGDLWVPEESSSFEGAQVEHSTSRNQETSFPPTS

[3] = target: T3, human monomeric His tagged TREM2 protein (human, UniProt Q9NZC2 19-174); assay: ForteBio or MSD-SET, monovalent
T3 construct: also called hTREM2-HIS
T3 sequence: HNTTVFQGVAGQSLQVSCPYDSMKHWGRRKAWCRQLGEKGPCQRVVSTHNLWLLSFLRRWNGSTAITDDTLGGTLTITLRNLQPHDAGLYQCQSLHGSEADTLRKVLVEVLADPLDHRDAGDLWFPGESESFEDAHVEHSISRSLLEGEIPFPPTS
Experimental: (§1) The binding affinity of each anti-TREM2 antibody was determined by measuring their KD by ForteBio or MSD-SET. […] Briefly, ForteBio affinity measurements were performed by loading IgGs on-line onto AHQ sensors. Sensors were equilibrated off-line in assay buffer for 30 min and then monitored on-line for 60 seconds for baseline establishment. Sensors with loaded IgGs were exposed to 100 nM antigen for 5 minutes, then transferred to assay buffer for 5 min for off-rate measurement. Kinetics were analyzed using the 1:1 binding model.
Solution equilibrium titrations (SET) were performed in PBS+0.1% IgG-Free BSA (PBSF) with antigen held constant at 50 pM and incubated with 3- to 5-fold serial dilutions of antibody starting at 10 nM. Antibodies (20 nM in PBS) were coated onto standard bind MSD-ECL plates overnight at 4° C. or at room temperature for 30 min. Plates were then blocked for 30 min with shaking at 700 rpm, followed by three washes with wash buffer (PBSF+0.05% Tween 20). SET samples were applied and incubated on the plates for 150s with shaking at 700 rpm followed by one wash. Antigen captured on a plate was detected with 250 ng/mL sulfotag-labeled streptavidin in PBSF by incubation on the plate for 3 min. The plates were washed three times with wash buffer and then read on the MSD Sector Imager 2400 instrument using 1× Read Buffer T with surfactant. […]

[4] = target: T1, human TREM2 Fc fusion protein; assay: ForteBio or MSD-SET, avid; remark: listed apart in the source
Experimental: as §1
(§2) Solution equilibrium titrations (SET) were performed in PBS+0.1% IgG-Free BSA (PBSF) with antigen held constant at 50 pM and incubated with 3- to 5-fold serial dilutions of antibody starting at 10 nM. Antibodies (20 nM in PBS) were coated onto standard bind MSD-ECL plates overnight at 4° C. or at room temperature for 30 min. Plates were then blocked for 30 min with shaking at 700 rpm, followed by three washes with wash buffer (PBSF+0.05% Tween 20). SET samples were applied and incubated on the plates for 150s with shaking at 700 rpm followed by one wash. Antigen captured on a plate was detected with 250 ng/mL sulfotag-labeled streptavidin in PBSF by incubation on the plate for 3 min. The plates were washed three times with wash buffer and then read on the MSD Sector Imager 2400 instrument using 1×Read Buffer T with surfactant. The percent free antigen was plotted as a function of titrated antibody in Prism and fit to a quadratic equation to extract the KD. To improve throughput, liquid handling robots were used throughout MSD-SET experiments, including SET sample preparation.

[5] = target: T2, mouse TREM2 Fc fusion protein; assay: ForteBio or MSD-SET, avid; remark: listed apart in the source
Experimental: as §1, §2

[6] = target: T4, human TREM2 on primary human cells (human, UniProt Q9NZC2 19-230); assay: FACS, primary human dendritic cells
T4 construct: also called hTREM2; TREM2 on primary human dendritic cells (hDC) and human macrophages
T4 sequence: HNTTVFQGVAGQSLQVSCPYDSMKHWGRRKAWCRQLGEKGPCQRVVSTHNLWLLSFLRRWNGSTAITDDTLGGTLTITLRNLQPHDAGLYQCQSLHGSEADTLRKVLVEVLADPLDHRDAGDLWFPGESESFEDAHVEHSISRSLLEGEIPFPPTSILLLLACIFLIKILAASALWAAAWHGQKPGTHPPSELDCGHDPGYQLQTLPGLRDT

mouse TREM2 on cells [7] = target: T5, mouse TREM2 on cells (mouse, UniProt Q99NH8 19-227); assay: FACS, WT mouse dendritic cells
T5 construct: whole, on cells; Used for the recombinant protein on BWZ/BW cells (with mouse DAP12) and for the native protein on mouse macrophages and dendritic cells; the cell type stands under assay; also called mTREM2; mTrem2
T5 sequence (looked up): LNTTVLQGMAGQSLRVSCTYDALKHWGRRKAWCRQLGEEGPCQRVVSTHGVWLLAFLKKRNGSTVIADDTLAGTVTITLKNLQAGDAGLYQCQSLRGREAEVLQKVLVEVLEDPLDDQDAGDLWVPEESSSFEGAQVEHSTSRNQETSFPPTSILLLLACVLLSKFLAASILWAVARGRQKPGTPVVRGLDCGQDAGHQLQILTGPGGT
Experimental: (§3) Cells were harvested, plated at 10⁵/ml in a 96 well plate, washed, and incubated in 100 ul PBS containing 10-50 ug/ml Mab and Fc blocking reagent for 1 hour in ice. Cells were then washed twice and incubated in 100 ul PBS containing 5 ug/ml PE-conjugated secondary antibody for 30 minutes in ice. Cells were washed twice in cold PBS and acquired on a BD FACS Canto. Data analysis and calculation of MFI values was performed with FlowJo (TreeStar) software version 10.0.7.

[8] = target: T4, human TREM2 on primary human cells; assay: cell-based or functional assay
[9] = target: T3, human monomeric His tagged TREM2 protein; assay: ForteBio or MSD-SET, monovalent; remark: listed apart in the source
Experimental: as §1, §2

mouse TREM2 on cells [10] = target: T5, mouse TREM2 on cells; assay: FACS, BWZ T2 cells
mouse TREM2 on cells [11] = target: T5, mouse TREM2 on cells; assay: FACS, WT mouse macrophages
Experimental: as §3

mouse TREM2 on cells [12] = target: T5, mouse TREM2 on cells; assay: FACS, mTrem2 cells
[13] = target: T3, human monomeric His tagged TREM2 protein; assay: ForteBio or MSD-SET, monovalent; remark: listed apart in the source
[14] = target: T1, human TREM2 Fc fusion protein; assay: ForteBio or MSD-SET, avid; remark: listed apart in the source
[15] = target: T2, mouse TREM2 Fc fusion protein; assay: ForteBio or MSD-SET, avid; remark: listed apart in the source

| Binder | Kd [1] | Kd [2] | Kd [3] | Kd [4] | Kd [5] | hDC % positive [6] | MFI (mouse TREM2 on cells [7]) | Induction of CD86 & CD83 Human hDC plate (% CD83+CD86+ cells) [8] | Induction of CD86 & CD83 hDC solution (% CD83+CD86+ cells) [8] | Kd [9] | MFI (mouse TREM2 on cells [10]) | MFI (mouse TREM2 on cells [11]) | MFI (mouse TREM2 on cells [12]) | Kd [13] | Kd [14] | Kd [15] |
| --- | --- | --- | --- | --- | --- | --- | --- | --- | --- | --- | --- | --- | --- | --- | --- | --- |
| Ab21 (antibody, human IgG1, V domains shown, human IgG1; also called antibody 21) VH: EVQLVQSGAEVKKPGESLKISCKGSGYSFTTYWIGWVRQMPGKGLEWMGIIYPGDSDTRYSPSFQGQVTISADKSISTAYLQWSSLKASDTAMYYCARAGHYDGGHLGMDVWGQGTTVTVSS VL: EIVMTQSPGTLSLSPGERATLSCRASQSVSSSYLAWYQQKPGQAPRLLIYGASNRATGIPDRFSGSGSGTDFTLTISRLEPEDFAVYYCQQDDSAPYTFGGGTKVEIK | 0.344 nM | 0.227 nM | 1.14 nM | – | – | – | – | – | – | – | – | – | – | – | – | – |
| Ab65 (antibody, human IgG1, V domains shown, human IgG1) VH: EVQLVQSGAEVKKPGESLKISCKGSGYSFTSYWIGWVRQMPGKGLEWMGIIYPGDSDTRYSPSFQGQVTISADKSISTAYLQWSSLKASDTAMYYCARLGRKPSGSVAFDIWGQGTMVTVSS VL: EIVLTQSPATLSLSPGERATLSCRASQSVSSYLAWYQQKPGQAPRLLIYDASNRATGIPARFSGSGSGTDFTLTISSLEPEDFAVYYCQQDYSWPYTFGGGTKVEIK | – | – | – | 0.546 nM | 1.56 nM | 76.9% | 642 MFI | 74% | 1.7% | 5.01 nM | 16100 MFI | 165 MFI | – | – | – | – |
| Ab52 (antibody, human IgG1, V domains shown, human IgG1; also called antibody 52) VH: QVQLVQSGAEVKKPGASVKVSCKASGYTFTSYYIHWVRQAPGQGLEWMGIINPSGGSTSYAQKFQGRVTMTRDTSTSTVYMELSSLRSEDTAVYYCAREADDSSGYPLGLDVWGQGTMVTVSS VL: EIVMTQSPATLSVSPGERATLSCRASQSVSSNLAWYQQKPGQAPRLLIYGASTRATGIPARFSGSGSGTEFTLTISSLQSEDFAVYYCQQVNSLPPTFGGGTKVEIK | 1.51 nM | 0.0896 nM | 5.75 nM | – | – | – | – | – | – | – | – | – | 15600 MFI | 5.75 nM | 1.51 nM | 0.0896 nM |
